# B1: full-length: full-length T. canadensis GGPP synthase preprotein (SEQ ID NO:2) encoded by SEQ ID NO:1 (protein)
# chain: MAYTAMAAGTQSLQLRTVASYQECNSMRSCFKLTPFKSFHGVNFNVPSLGAANCEIMGHLKLGSLPYKQCSVSSKSTKTMAQLVDLAETEKAEGKDIEFDFNEYMKSKAVAVDAALDKAIPLEYPEKIHESMRYSLLAGGKRVRPALCIAACELVGGSQDLAMPTACAMEMIHTMSLIHDDLPCMDNDDFRRGKPTNHKVFGEDTAVLAGDALLSFAFEHIAVATSKTVPSDRTLRVISELGKTIGSQGLVGGQVVDITSEGDANVDLKTLEWIHIHKTAVLLECSVVSGGILGGATEDEIARIRRYARCVGLLFQVVDDILDVTKSSEELGKTAGKDLLTDKATYPKLMGLEKAKEFAAELATRAKEELSSFDQIKAAPLLGLADYIAFRQN
# B2: Tr^295: 5'-truncated T. canadensis GGPP synthase of SEQ ID NO:2 beginning at nucleotide 295 (F^99), lacking the transit peptide (protein)
# chain: FDFNEYMKSKAVAVDAALDKAIPLEYPEKIHESMRYSLLAGGKRVRPALCIAACELVGGSQDLAMPTACAMEMIHTMSLIHDDLPCMDNDDFRRGKPTNHKVFGEDTAVLAGDALLSFAFEHIAVATSKTVPSDRTLRVISELGKTIGSQGLVGGQVVDITSEGDANVDLKTLEWIHIHKTAVLLECSVVSGGILGGATEDEIARIRRYARCVGLLFQVVDDILDVTKSSEELGKTAGKDLLTDKATYPKLMGLEKAKEFAAELATRAKEELSSFDQIKAAPLLGLADYIAFRQN
# Tests used:
# [1] = Prenyltransferase assay of extracts of yeast expressing the GGPP synthase constructs, with product analysis by radio-TLC; type: biochemical, Taxus canadensis
# Method: The standard assay for prenyltransferase activities was performed with 21 mg protein in a total volume of 100 ml of the extraction/assay buffer disclosed in Example 3. […] The reaction was quenched by the addition of 300 mil of methanol:conc. HCl (4:1, v/v), and the allylic diphosphate products were solvolyzed (50, 51) upon further incubation at 42° C. for 20 min. The resulting solvolysis products were extracted twice with 1 ml pentane, and were either analyzed by liquid scintillation counting (in toluene:ethanol (7:3, v/v) containing 0.4% Omnifluor (DuPont NEN); ^14 C counting efficiency=96.0%) or concentrated on ice under a gentle stream of Ar to […] for further analysis.
# For radio-TLC analysis, samples were mixed with 10 mg each of geranylgeraniol (all trans), geranyllinalool (mixed geometric isomers), farnesol and geraniol and spotted on Whatman MKC 18F reversed phase plates that were developed with acetonitrile:acetone:water (15:4:1, v/v/v) and visualized with I2 vapor. Bands corresponding to the standards were scraped into scintillation vials for counting. For radio-GC analysis, the above pentane extract was diluted with 200 ml of an 8% ethereal solution of the internal standards before concentration on ice. Product identity was confirmed by radio-GC (Satterwhite, D. M. and Croteau, R. (1988) J. Chromatogr., 452:61-73) coincidence with the authentic standard on a 12 ft x 0.125 in. polydimethylsiloxane column (15% SE-30 on 80/100-mesh Chromasorb WHP; (Alltech, Inc., Nicholasville, Ky.), with He as carrier and temperature programming from 150° C. (1 min hold) to 240° C. (20 min hold) at 8° C./min.
# [2] = tested on: ANY119, an S. cerevisiae mutant; test: Complementation assay in yeast bet2-1 mutant; type: cell-based; conditions: 37° C.; SGI (3 d) and N3 (5 d)
# Method: The pYeDP60 constructs were transformed into the S. cerevisiae mutant ANY119 using the lithium acetate procedure (Treco, D. (1989) in Current Protocols in Molecular Biology (Ausubel, F. M., Brent, R., Kingston, R. E., Moore, D. D., Seidman, J. G., Smith, J. A. and White, T. J., Eds.), pp. 13.7.1-13.7.2, John Wiley and Sons, New York), and the transformed yeast were then plated on a synthetic medium containing glucose as the sole carbon source (but lacking uracil) and grown for 4 d at 25° C. Isolated colonies, corresponding to each construct, were then replica streaked onto SGI, N3 and SLI media and grown for 3, 5 or 7 d, respectively, at 25° C or 37° C.
# SGI and SLI synthetic media contain, respectively, 20 g/liter glucose (G) or 20 g/liter galactose (L) in 1 g/liter bactocasamino acids (Difco), 6.7 g/liter yeast nitrogen base without amino acid (Difco), and 40 mg/liter DL-tryptophan.
# The three pYeDP60/T. canadensis GGPP synthase constructs were introduced into and expressed in ANY119, an S. cerevisiae mutant that is defective for the β-subunit of type II geranylgeranyltransferase. […]
# yeast strain (INVSc1) = test: Growth/toxicity of constructs in yeast under galactose induction; type: cell-based, S. cerevisiae; conditions: for growth of INVSc1 transformants on SLI medium: 30° C., 3 d, galactose (induced); for toxicity of the expressed recombinant GGPP synthase gene to host cells: inducing conditions, galactose as carbon source
# Method: To test the expression of GGPP synthase on galactose as carbon source, each construct was transformed into a yeast strain (INVSc1) that metabolizes this sugar efficiently.
# (§1) The toxicity of the constitutively expressed, recombinant GGPP synthase gene in yeast and in E. coli parallels the in vitro activity of the enzyme expressed in the truncation series. […] This toxicity is not observed when the corresponding transformed yeast are grown on glucose or glycerol (uninduced condition), but only when the gene is actively expressed by growth under inducing conditions with galactose as the carbon source. The overexpression of this gene to produce a functional GGPP synthase probably interferes with metabolism by depleting intracellular pools of FPP, via diversion to GGPP, and thus limiting sterol biosynthesis. […] The vector used in these E. coli transformation experiments was pYPGE15, the plasmid derived from λPG15.
# E. coli = test: Expression under a strong constitutive promoter in E. coli (vector pYPGE15); type: cell-based
# Method: as §1
Molecule,"activity relative to the truncated form expressed from Tr^295 ([1]; compared on a protein basis, yeast extracts) [%]",growth at restrictive temperature (rescue of bet2-1 mutant) [2],growth of INVSc1 transformants on SLI medium (yeast strain (INVSc1)),toxicity of the expressed recombinant GGPP synthase gene to host cells (yeast strain (INVSc1)),growth of E. coli expressing the clone (E. coli),"total radioactivity of solvolysis products coinciding with geranylgeraniol and geranyllinalool standards ([1]; reversed phase TLC, [4-^14 C]IPP plus FPP as substrates) [%]","prenyltransferase activity of enzyme preparation ([1]; yeast extracts, [4-^14 C]IPP and FPP)"
B1,12,showed growth,scanty growth,noticeable reduction in growth,the cells will not grow,,
B2,,showed growth,did not grow at all,extremely toxic,the cells will not grow,97,highly active
